Data published in the supplement of paper PMC10201428.
± gives the standard deviation of the averaged measurements.

How the values were obtained:
[1] = tested on: VchCAST RNA-guided transposition machinery (E. coli BL21(DE3) host, lacZ target); assay: relative integration efficiency (T-RL orientation) vs wild-type transposon end (log2 (normalized fold change)); transposon end mutated: right end (5 bp flank + 75 bp right end); higher = more efficient transposition
Method in brief: (§1)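 In E. coli BL21(DE3), a T7-driven effector plasmid was paired with a pUC57 mini-transposon donor containing 1549 left-end or 1849 right-end barcoded transposon variants. Cells grew on plates with 0.1 mM IPTG at 37°C for 18 h. Relative integration efficiency was derived from Illumina reads of genomic integration junctions against input plasmids, as a log-transformed output/input barcode fold change normalised to reference barcodes.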

[2] = tested on: VchCAST RNA-guided transposition machinery (E. coli BL21(DE3) host, lacZ target); assay: relative integration efficiency (T-LR orientation) vs wild-type transposon end (log2 (normalized fold change)); transposon end mutated: right end (5 bp flank + 75 bp right end); higher = more efficient transposition
Method in brief: as §1

ACATTTGTTGATACAACCATAAAATGATAATTAATAACACCCATAAATTGATAATTATCAACAAACGCCCGGTCGCGGTACTCTGATCATAGTCAGACCAACATTGCTACGACCCGTATTCGCACCG
relative integration efficiency (log2) [1]: -2.52 ± 0.17 | relative integration efficiency (log2) [2]: 0.892 ± 0.16

ACATTTGTTGATACACCCATAAATTGATATTGCCAACCATAAAGTGATATTTATCAGTGGGTATTTAACTATAACGCTCTGATCATAGTCAGACCAACATTGCTACGACCCGTATTCGCACCGACAC
relative integration efficiency (log2) [1]: -1.12 ± 0.16 | relative integration efficiency (log2) [2]: 2.341 ± 0.0029

ACATTTGTTGATACAACCATAAAATGATAATTACACCCATAAATTGATAATTATCACACCCATAAATTGATATTGCCTCTGATCACAACCATAAAATGATAATTATAGTCAGACCAAGCACCGACAC
relative integration efficiency (log2) [1]: -0.0149 ± 0.23 | relative integration efficiency (log2) [2]: -0.402 ± 0.11

ACATTTGTTGATCCAACCATAAAATGATAATTACACCCATAAATGGATCATTATCACACCCAATTTAACTATAACGCTCTGATCATAGTCAGACCAACATTGCTACGACCCGTATTCGCACCGACAC
relative integration efficiency (log2) [1]: -1.74 ± 0.32 | relative integration efficiency (log2) [2]: 1.13 ± 0.26

ACATTTGTAAAAAAAACCATACGTTGATTTTACGAAACCATACGCTGAAATAAAAACAACCATACCTTGAAATTGCCTCTGATCATAGTCAGACCAACATTGCTACGACCCGTATTCGCACCGACAC
relative integration efficiency (log2) [1]: -6.84 ± 0.49 | relative integration efficiency (log2) [2]: -4.82 ± 1.9

ACATTTGTTGATACAACCATATTTAGATAATTACACCCATAAATTGATAATTATCACACCCATAAATTGATATTGCCTCTGATCATAGTCAGACCAACATTGCTACGACCCGTATTCGCACCGACAC
relative integration efficiency (log2) [1]: -0.585 ± 0.14 | relative integration efficiency (log2) [2]: -0.623 ± 0.22

ACATTTGTTGATACAACCATAAAATGATTTAATCACCCATAAATTGATTTAATTCACACCCATAAATTGATTAACGCTCTGATCATAGTCAGACCAACATTGCTACGACCCGTATTCGCACCGACAC
relative integration efficiency (log2) [1]: -1.13 ± 0.18 | relative integration efficiency (log2) [2]: -0.00841 ± 0.34

ACATTTGTTGATACAACCATCAAATGATAATTCCACCCATAAATTGATAATTATCACACCCAATTTAACTATAACGCTCTGATCATAGTCAGACCAACATTGCTACGACCCGTATTCGCACCGACAC
relative integration efficiency (log2) [1]: -1.53 ± 0.19 | relative integration efficiency (log2) [2]: 1.44 ± 0.11

ACATTTGTTGATACAACCATTAAATGATAATTCCACCCATATATTGATAATTATCACACCCAATTTAACTATAACGCTCTGATCATAGTCAGACCAACATTGCTACGACCCGTATTCGCACCGACAC
relative integration efficiency (log2) [1]: -1.24 ± 0.15 | relative integration efficiency (log2) [2]: 2.16 ± 0.074

ACATTTGTTGATACCACCATCAAATGGTAATTACACCCATACATTGATAATTATCACACCCAATTTAACTATAACGCTCTGATCATAGTCAGACCAACATTGCTACGACCCGTATTCGCACCGACAC
relative integration efficiency (log2) [1]: -5.6 ± 0.15 | relative integration efficiency (log2) [2]: -2.98 ± 0.51

ACATTTGTTGATAACCAACGCCCCGTCGCCGGCACAAACGCCCGGTCGCCGGCTCACACCCATAAATTGATATTGCCTCTGATCATAGTCAGACCAACATTGCTACGACCCGTATTCGCACCGACAC
relative integration efficiency (log2) [1]: -7.79 ± 0.73 | relative integration efficiency (log2) [2]: < -10

ACATTTGTTGATACAACCATAAAATGATAATTACACCCATAAATTGATAATTATCACACCCATAAATTGATCTCTGATCATAGTCAGACCAACATTGCTACGACCCGTATTCGCACCGACACTGACT
relative integration efficiency (log2) [1]: -0.209 ± 0.021 | relative integration efficiency (log2) [2]: 0.731 ± 0.26

ACATTTGTTGATACAACCATAAAATGATAATTACACCCATTAATTGATAATTGTGACACCGAATTTAACTATAACGCTCTGATCATAGTCAGACCAACATTGCTACGACCCGTATTCGCACCGACAC
relative integration efficiency (log2) [1]: -1.29 ± 0.37 | relative integration efficiency (log2) [2]: 2.21 ± 0.16

ACCGTTGTTGATACAACCATAAAATGATAATTACACCCATAAATTGATAATTATCACACCCATAAATTGATATTGCCTCTGATCATAGTCAGACCAACATTGCTACGACCCGTATTCGCACCGACAC
relative integration efficiency (log2) [1]: -0.00193 ± 0.024 | relative integration efficiency (log2) [2]: 0.612 ± 0.13

ACATTTGTTGATACAACCATAAAATGATAATTACTCTGATCATAGTCAGACCAACATTGCTACGACCCCACCCATAAATTGATAATTATCAGTGGGTATTTAACTATAACGGTATTCGCACCGACAC
relative integration efficiency (log2) [1]: -2.938 ± 0.018 | relative integration efficiency (log2) [2]: -0.154 ± 0.0093

ACATTTGTTGATACAACCATAAAATGATAATTACACCCATAAATTGATAATTATCACACCCATAAATTGATATTGCCTCTGGCTAGCATTGTACCTAGGACTGAGCTAGCCATAAACGCACCGACAC
relative integration efficiency (log2) [1]: -0.0442 ± 0.11 | relative integration efficiency (log2) [2]: 0.293 ± 0.3

ACATTTGTGGATACAACCCTAAAATGATAATTACACCCATAAATGGATAATTATCACACCCAATTTAACTATAACGCTCTGATCATAGTCAGACCAACATTGCTACGACCCGTATTCGCACCGACAC
relative integration efficiency (log2) [1]: -3.64 ± 0.39 | relative integration efficiency (log2) [2]: -0.593 ± 0.47

ACATTTGTTGATACAACCATAAAATGATAATTACACCCATAAATTGATATTGCTCACAACCATAAAATGATAATTACTCTGATCATAGTCAGACCAACATTGCTACGACCCGTATTCGCACCGACAC
relative integration efficiency (log2) [1]: -0.532 ± 0.27 | relative integration efficiency (log2) [2]: 0.106 ± 0.059

ACATTTGCTGATACTACCATTTAATGATAATAACACCCATAAAATGATAATTATCACACCCAATTTAACTATAACGCTCTGATCATAGTCAGACCAACATTGCTACGACCCGTATTCGCACCGACAC
relative integration efficiency (log2) [1]: -2.31 ± 0.44 | relative integration efficiency (log2) [2]: -0.487 ± 0.3

ACATTTGTTGATAAAACCATAAAATGATTTTAAGAAACCATAATCTGAAATAATCACACCCATAAATTGATATTGCCTCTGATCATAGTCAGACCAACATTGCTACGACCCGTATTCGCACCGACAC
relative integration efficiency (log2) [1]: -3.13 ± 0.069 | relative integration efficiency (log2) [2]: -1.78 ± 0.24

ACATTTGTTGATACAACCATAAAATGATAATTACACCCATAAATTGATAATTATCACACCCATAAATTGATATTGCCTCTGATAACTTCGTATAGGATACTTTATACGAAGTTATTCGCACCGACAC
relative integration efficiency (log2) [1]: -0.663 ± 0.27 | relative integration efficiency (log2) [2]: 1.19 ± 0.28

ACATTTGTTGATACAACCATTAAATGATAATTCCACCAATAAATTGATAATTATCACACCCAATTTAACTATAACGCTCTGATCATAGTCAGACCAACATTGCTACGACCCGTATTCGCACCGACAC
relative integration efficiency (log2) [1]: -1.51 ± 0.17 | relative integration efficiency (log2) [2]: 1.37 ± 0.042

ACATTTGTTGATACAACCATAAAATGGTAATTACACCCCTACATTGATAATTATCACACCCAATTTAACTATAACGCTCTGATCATAGTCAGACCAACATTGCTACGACCCGTATTCGCACCGACAC
relative integration efficiency (log2) [1]: -3.67 ± 0.066 | relative integration efficiency (log2) [2]: -0.856 ± 0.38

ACATTTGTCGATACAACCCTAAAATGATAATTACACCCATAAATTCATAATTATCACACCCAATTTAACTATAACGCTCTGATCATAGTCAGACCAACATTGCTACGACCCGTATTCGCACCGACAC
relative integration efficiency (log2) [1]: -4.55 ± 0.13 | relative integration efficiency (log2) [2]: -2.19 ± 0.3

ACATTTGTTGATACAACCATAAGTTGATATTTTCAACCATAAAGTGATATTTATCACAACCATAAAATGATAATTACTCTGATCATAGTCAGACCAACATTGCTACGACCCGTATTCGCACCGACAC
relative integration efficiency (log2) [1]: -0.0697 ± 0.03 | relative integration efficiency (log2) [2]: -0.435 ± 0.24

ACATTTGTTGATACAACCATATATTGATATCTCCAACCATATATTGATATCTCTCACAACCATAAAGTGATATTTACTCTGATCATAGTCAGACCAACATTGCTACGACCCGTATTCGCACCGACAC
relative integration efficiency (log2) [1]: -0.452 ± 0.1 | relative integration efficiency (log2) [2]: 0.0811 ± 0.2

ACATTTGTTGATACAACCATAAAATGATAATTACACCCATAAATTCTTAATTATCACACCCATAAATTGATATTGCCTCTGATCATAGTCAGACCAACATTGCTACGACCCGTATTCGCACCGACAC
relative integration efficiency (log2) [1]: -1.43 ± 0.18 | relative integration efficiency (log2) [2]: -1.33 ± 0.28

ACATTTGTTGATACAACCATAAAATGATAATTCCACCCATAAATTGATAATTCTCACACCCATAAATTGATATTGACTCTGATCATAGTCAGACCAACATTGCTACGACCCGTATTCGCACCGACAC
relative integration efficiency (log2) [1]: -0.563 ± 0.1 | relative integration efficiency (log2) [2]: -0.163 ± 0.16

ACATTTGTGTATACAACCATAAAATGATAATTACACCCATAAATTGATAATTATCACACCCATAAATTGATATTGCCTCTGATCATAGTCAGACCAACATTGCTACGACCCGTATTCGCACCGACAC
relative integration efficiency (log2) [1]: 0.00813 ± 0.2 | relative integration efficiency (log2) [2]: -0.811 ± 0.61

ACATTTGTTGATACAACCATATATTGATATCTCCAACCATAAAATGATAATTATCACAACCATAAAGTGATATTTACTCTGATCATAGTCAGACCAACATTGCTACGACCCGTATTCGCACCGACAC
relative integration efficiency (log2) [1]: -0.115 ± 0.074 | relative integration efficiency (log2) [2]: -0.441 ± 0.36

ACATTTGTTCATACAACCCTAAAATGATAATTACACCCATAAATGGATAATTATCACCCCCAATTTAACTATAACGCTCTGATCATAGTCAGACCAACATTGCTACGACCCGTATTCGCACCGACAC
relative integration efficiency (log2) [1]: -3.89 ± 0.38 | relative integration efficiency (log2) [2]: -2.74 ± 0.46

ACATTTGTTGATACAAAACGAAAATGATAATTACACCCATAAATTGATAATTATCACACCCATAAATTGATATTGCCTCTGATCATAGTCAGACCAACATTGCTACGACCCGTATTCGCACCGACAC
relative integration efficiency (log2) [1]: -3.95 ± 0.13 | relative integration efficiency (log2) [2]: -6.65 ± 0.98

ACATTTGTTGATACAACCATAAAATGATAATTACTGCCATAAATTGATAATTATCACACCCATAAATTGATATTGCCTCTGATCATAGTCAGACCAACATTGCTACGACCCGTATTCGCACCGACAC
relative integration efficiency (log2) [1]: -0.109 ± 0.19 | relative integration efficiency (log2) [2]: -0.602 ± 0.32

ACATTGGTTGATACAACCATAAAATGATAATTACACCCATAAATGGATAATTATCACACCCAATTTAACTATAACGCTCTGATCATAGTCAGACCAACATTGCTACGACCCGTATTCGCACCGACAC
relative integration efficiency (log2) [1]: -7.99 ± 0.69 | relative integration efficiency (log2) [2]: -5.61 ± 0.44

ACATTTGTTGATACACCCATAAATTGATATTGCCAACCATATATTGATATCTCTCACACCCATAAATTGATATTGCCTCTGATCATAGTCAGACCAACATTGCTACGACCCGTATTCGCACCGACAC
relative integration efficiency (log2) [1]: -1.11 ± 0.06 | relative integration efficiency (log2) [2]: -0.587 ± 0.35
